Laboratory results from US20250152722A1, “DRUG CONJUGATE OF GLUCOCORTICOID” (SHANGHAI SHENGDI PHARMACEUTICAL CO., LTD., priority 2022, published 2025).

T1: human IL-4Rα protein (Homo sapiens, UniProt P24394)
T1 construct: purchased SinoBiological 10402-H08H-B
T1 sequence (P24394 26-232 limits assumed): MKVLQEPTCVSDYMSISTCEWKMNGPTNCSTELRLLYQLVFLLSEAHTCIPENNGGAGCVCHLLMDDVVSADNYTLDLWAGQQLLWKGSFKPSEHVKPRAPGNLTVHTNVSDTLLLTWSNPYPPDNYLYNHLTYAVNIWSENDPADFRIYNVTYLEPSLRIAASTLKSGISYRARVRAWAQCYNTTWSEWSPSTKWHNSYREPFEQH

T2: human IL-4Rα expressed on cells (human, UniProt P24394 26-825)
T2 sequence (looked up): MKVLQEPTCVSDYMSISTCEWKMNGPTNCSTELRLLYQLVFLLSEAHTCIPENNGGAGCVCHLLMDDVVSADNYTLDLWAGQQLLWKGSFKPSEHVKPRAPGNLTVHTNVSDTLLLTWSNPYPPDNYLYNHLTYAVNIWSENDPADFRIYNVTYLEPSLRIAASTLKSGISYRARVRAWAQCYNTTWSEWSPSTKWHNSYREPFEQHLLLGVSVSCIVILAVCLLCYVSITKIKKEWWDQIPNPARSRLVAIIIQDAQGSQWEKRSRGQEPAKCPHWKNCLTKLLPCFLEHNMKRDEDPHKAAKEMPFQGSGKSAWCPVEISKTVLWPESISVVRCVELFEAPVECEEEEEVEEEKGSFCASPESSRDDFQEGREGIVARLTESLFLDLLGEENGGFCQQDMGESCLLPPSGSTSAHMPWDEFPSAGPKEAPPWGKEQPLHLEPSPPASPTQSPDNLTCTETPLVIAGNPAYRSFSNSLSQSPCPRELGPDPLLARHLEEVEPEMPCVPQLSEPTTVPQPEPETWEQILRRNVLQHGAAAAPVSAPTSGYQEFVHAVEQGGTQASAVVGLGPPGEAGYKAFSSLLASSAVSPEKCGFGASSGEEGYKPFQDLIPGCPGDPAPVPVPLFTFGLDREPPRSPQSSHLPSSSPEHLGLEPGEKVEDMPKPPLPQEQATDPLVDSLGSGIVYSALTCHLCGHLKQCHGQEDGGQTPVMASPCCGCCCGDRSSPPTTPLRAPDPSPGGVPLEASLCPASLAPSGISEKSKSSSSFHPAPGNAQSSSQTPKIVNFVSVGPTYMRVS

T3: Biotin-labeled human IL-4Rα protein (SinoBiological, CAT #10402-H08H-B) (human, UniProt P24394 26-232, Biotin-labeled (sites not given))
T3 construct: Bought reagent, captured on an SA sensor chip; also called hIL-4Rα; human IL-4Rα antigen protein
T3 sequence (looked up): T1 sequence (P24394 26-232 limits assumed)

B1: 25G7-Fab (Fab, V domains shown)
VH: EVQLVESGGGLVQPGGSLRLSCAASGFTFSDYGMHWVRQAPGKGLEWVAFISSGSSIIYYADIVKGRSTISRDNAKNTLYLQMNSLRAEDTAVYYCTRGNKRGFFDYWGQGTLVTVSS
VL: EIVLTQSPATLSLSPGERATLSCRASSSVPYMYWYQQKPGQAPRLLIYLTSNLASGIPARFSGSGSGTDFTLTISSLEPEDFAVYYCQQWRAYPPMLTFGGGTKVEIKR
notes: Heavy chain is VH-CH1 (hu25G7-24-IgG4 VH-CH1), light chain is hu25G7-A LC; also called naked antibody 25G7-Fab; antibody 25G7-Fab
B2: hu25G7 (antibody, human IgG4 S228P, kappa, V domains shown)
VH: B1 VH
VL: B1 VL
notes: Full-length humanized antibody
B3: antibody-drug conjugate ADC-2 (other)
heavy: EVQLVESGGGLVQPGGSLRLSCAASGFTFSDYGMHWVRQAPGKGLEWVAFISSGSSIIYYADIVKGRSTISRDNAKNTLYLQMNSLRAEDTAVYYCTRGNKRGFFDYWGQGTLVTVSSASTKGPSVFPLAPCSRSTSESTAALGCLVKDYFPEPVTVSWNSGALTSGVHTFPAVLQSSGLYSLSSVVTVPSSSLGTKTYTCNVDHKPSNTKVDKRV
light: EIVLTQSPATLSLSPGERATLSCRASSSVPYMYWYQQKPGQAPRLLIYLTSNLASGIPARFSGSGSGTDFTLTISSLEPEDFAVYYCQQWRAYPPMLTFGGGTKVEIKRTVAAPSVFIFPPSDEQLKSGTASVVCLLNNFYPREAKVQWKVDNALQSGNSQESVTEQDSKDSTYSLSSTLTLSKADYEKHKVYACEVTHQGLSSPVTKSFNRGEC
modifications: budesonide linker-drug (Compound 2) coupled after TCEP reduction of 25G7-Fab; positions and drug loading not given; budesonide linker-drug (Compound 2, maleimide-(PEG)4-CH2CH2C(O)-Gly-Gly-Phe-Gly-NHCH2-O-budesonide) coupled after TCEP reduction of 25G7-Fab; positions and drug loading not given

Columns and labels:
[1] = Pharmacokinetic testing on mouse model after intratracheal nebulization; format: in vivo; conditions: after ADC-2 100 μg i.t., mice
Description: C57BL6/J mice, 8 weeks old, male, Cyagen (Suzhou) Biosciences Co., Ltd.
Mice were given medication via intratracheal nebulization (i.t.). At different time points post-administration, 300-400 μL of blood was collected from a mandibular blood vessel, left to stand for 2 h, and then centrifuged at 7500 rpm and 4° C. for 10 min, and the serum was collected. Following the blood collection, the mice were anesthetized and immobilized, the neck muscles of the mice were bluntly isolated to expose the trachea, and an incision was horizontally made in the trachea. A lavage syringe needle was slowly inserted, the normal saline pre-loaded, pre-cooled at 4° C., was slowly injected into the lung tissue for lavage, and the bronchoalveolar lavage fluid (BALF) was collected. Lavage was performed 3 times, with 300 μL of normal saline used for each of the first two lavages and 400 μL for the third. The collected bronchoalveolar lavage fluid was centrifuged at 1000 rpm and 4° C. for 10 min, and the supernatant was collected. After the mice were euthanized, their thoracic cavities were opened, and the complete lung tissues were isolated and collected. The tissues were rinsed with PBS to remove blood stains on the surfaces, and the surface PBS was dried off with paper towels before weighing the lung tissues. […] The protein concentrations in the homogenates were measured (Pierce, 23227). […]

human IL-4Rα protein = molecular target: T1, human IL-4Rα protein; assay: SPR affinity for human IL-4Rα antigen protein (Biacore 8K); format: binding; conditions: captured hIL-4Rα
Description: An SA sensor chip (Cytiva) was placed in Biacore 8K (Cytiva), and Biotin-labeled human IL-4Rα protein (SinoBiological, CAT #10402-H08H-B) was captured on the SA sensor chip. HBS-EP+buffer solution (10 mM HEPES, 150 mM NaCl, 3 mM EDTA, 0.05% surfactant P20) was used as the mobile phase. Each test protein was serially diluted 2-fold with HBS-EP+buffer solution and then injected as an analyte. […] Analysis was performed using Biacore 8K evaluation software (Cytiva), and data on the affinities of the test proteins were obtained.

[2] = molecular target: T2, human IL-4Rα expressed on cells; assay: cell-based or functional assay
[3] = molecular target: T2, human IL-4Rα expressed on cells; assay: flow cytometry, whole-cell binding to Karpas 299 cells expressing IL-4Rα; FITC anti-human IgG (Fab-specific) secondary antibody
Description: (§1) TF-1 and Karpas299 cells in the logarithmic growth phase were harvested and counted, and the cell density was adjusted. The cells were inoculated onto a 96-well round-bottom plate at 1×10⁵ cells/well. […] After the antibodies were washed off with FACS buffer (PBS containing 2% FBS), a fluorescently labeled secondary antibody was added for staining. […] The cells were incubated with the secondary antibodies at 4° C. for 30 min, then washed with FACS buffer twice, and assayed on a flow cytometer (BD, FACS Celesta), and the results were analyzed using FlowJo (FlowJo, LLC) software.

[4] = molecular target: T3, Biotin-labeled human IL-4Rα protein …; assay: SPR, Biacore 8K, biotinylated hIL-4Rα captured on SA chip, test protein as analyte
Description: HBS-EP+buffer solution (10 mM HEPES, 150 mM NaCl, 3 mM EDTA, 0.05% surfactant P20) was used as the mobile phase. Each test protein was serially diluted 2-fold with HBS-EP+buffer solution and then injected as an analyte. The flow rate was set to 30 μL/min. […] Analysis was performed using Biacore 8K evaluation software (Cytiva), and data on the affinities of the test proteins were obtained.

[5] = molecular target: T2, human IL-4Rα expressed on cells; assay: flow cytometry on TF-1 cells, anti-hFab-FITC secondary antibody
Description: as §1

Row | Molecule | IC50 value (nM) for blocking of IL-4 signaling pathway (HEK-Blue IL-4/IL-13 STAT6-SEAP reporter cells, recombinant human IL-4) [2] [nM] | IC50 value (nM) for blocking of IL-13 signaling pathway (HEK-Blue IL-4/IL-13 STAT6-SEAP reporter cells, recombinant human IL-13) [2] [nM] | EC50 (read off the curve) [3] [nM] | EC50 [5] [nM] | also measured
1 | CCCC1O[C@@H]2C[C@H]3[C@@H]4CCC5=CC(=O)C=C[C@]5(C)[C@H]4[C@@H](O)C[C@]3(C)[C@]2(C(=O)CO)O1 (stereo partly drawn) [Free budesonide, budesonide] | – | – | – | – | exposure of budesonide in serum, BALF and lung tissue (in words) [1]: low in all these tissues
2 | AZD1402-TAG: protein sequence from SEQ ID NO: 1 in WO2020200960A1 with a His tag fused at the C-terminus (SEQ ID NO: 52) | – | – | – | – | Koff (human IL-4Rα protein): 0.000102 s⁻¹; Kon (human IL-4Rα protein): 4.77e+06 M⁻¹ s⁻¹
3 | B1 | 0.61 | 14.6 | ~0.2 | 0.243 | Kd [4]: 0.0439 nM; koff [4]: 0.000206 s⁻¹; kon [4]: 4.69e+06 M⁻¹ s⁻¹
4 | B2 | – | – | ~0.1 | 0.247 | –
5 | B3 | 0.68 | 10.6 | ~0.3 | – | –
